Data as given in patent publication US20240368664A1, “LIVE YEAST BIOSENSORS AND METHODS OF USE THEREOF” (priority 2021, published 2024).

Assays:
[1] = target: T1, Scheffersomyces stipitis pheromone GPCR SsSte2 (Scheffersomyces stipitis); test: cell-based or functional assay
T1 sequence: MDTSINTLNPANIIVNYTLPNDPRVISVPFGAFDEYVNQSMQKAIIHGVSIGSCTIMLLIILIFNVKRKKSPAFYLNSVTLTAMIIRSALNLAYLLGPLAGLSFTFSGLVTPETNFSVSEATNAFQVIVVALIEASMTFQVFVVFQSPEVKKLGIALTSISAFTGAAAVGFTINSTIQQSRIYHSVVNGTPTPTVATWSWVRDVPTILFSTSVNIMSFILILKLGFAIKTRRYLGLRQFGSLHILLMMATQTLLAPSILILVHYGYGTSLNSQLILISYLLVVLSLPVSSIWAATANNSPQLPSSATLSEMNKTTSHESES

[2] = target: T2, Schizosaccharomyces japonicus pheromone GPCR SjSte2 (Schizosaccharomyces japonicus); test: cell-based or functional assay
T2 sequence: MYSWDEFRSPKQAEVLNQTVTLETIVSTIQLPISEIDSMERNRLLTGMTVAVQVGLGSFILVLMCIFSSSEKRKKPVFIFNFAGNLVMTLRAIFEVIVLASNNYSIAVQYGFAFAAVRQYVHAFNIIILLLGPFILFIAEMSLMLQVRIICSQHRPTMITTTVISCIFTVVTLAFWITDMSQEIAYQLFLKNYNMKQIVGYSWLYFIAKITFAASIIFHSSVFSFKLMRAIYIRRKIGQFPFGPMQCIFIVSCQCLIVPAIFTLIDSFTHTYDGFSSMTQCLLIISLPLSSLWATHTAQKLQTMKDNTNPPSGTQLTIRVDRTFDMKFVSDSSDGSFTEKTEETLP

| Substance | EC50, mCherry, yMJ194 [1] [nM] | EC50, mCherry, yTC453 [1] [nM] | maximal activation, mCherry, yMJ194 [1] [A.U.] | maximal activation, mCherry, yTC453 [1] [A.U.] | apparent EC50, ymTurquoise2, strain co-expressing SjSxa2 [2] [nM] |
| --- | --- | --- | --- | --- | --- |
| Scheffersomyces stipitis cognate peptide (SsPep) | 12 | 7 | 320 | 5300 | – |
| S. japonicus pheromone peptide (SjPep) | – | – | – | – | 100000 |
